Measured values as given in patent publication US20090149389A1 (PURDUE RESEARCH FOUNDATION, published 2009).

What was measured:
Test in all cases: cell-based or functional assay
Syk (h) = Syk (h) (human (h), UniProt P43405 1-635)
Tie2 (h) = Tie2 (h) (human (h), UniProt Q02763 771-1124, limits assumed)
ASK1 (h) = ASK1 (h) (human (h), UniProt Q99683 649-946, limits assumed)
Abl (h) = Abl (h) (human (h), UniProt P00519 27-1130, limits assumed)
PhKγ2 (h) = target: T1, PhKγ2 (h) (human (h), UniProt P15735 1-406)
T1 sequence (looked up): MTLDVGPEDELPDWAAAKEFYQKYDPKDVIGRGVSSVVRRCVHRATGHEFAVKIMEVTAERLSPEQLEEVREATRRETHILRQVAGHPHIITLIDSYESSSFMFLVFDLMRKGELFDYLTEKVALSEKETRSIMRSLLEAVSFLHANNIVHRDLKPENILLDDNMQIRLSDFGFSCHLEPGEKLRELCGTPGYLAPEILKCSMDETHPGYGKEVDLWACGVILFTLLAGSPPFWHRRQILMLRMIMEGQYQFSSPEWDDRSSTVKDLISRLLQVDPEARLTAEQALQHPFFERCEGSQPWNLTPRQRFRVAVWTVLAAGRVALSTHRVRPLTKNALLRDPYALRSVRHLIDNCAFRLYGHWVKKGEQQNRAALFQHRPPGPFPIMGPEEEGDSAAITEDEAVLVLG

MAPKAP-K3 (h) = MAPKAP-K3 (h) (human (h), UniProt Q16644 1-382, limits assumed)
Aurora-A (h) [1] = target: T2, Aurora-A (h) (human (h), UniProt O14965 1-403)
T2 sequence (looked up): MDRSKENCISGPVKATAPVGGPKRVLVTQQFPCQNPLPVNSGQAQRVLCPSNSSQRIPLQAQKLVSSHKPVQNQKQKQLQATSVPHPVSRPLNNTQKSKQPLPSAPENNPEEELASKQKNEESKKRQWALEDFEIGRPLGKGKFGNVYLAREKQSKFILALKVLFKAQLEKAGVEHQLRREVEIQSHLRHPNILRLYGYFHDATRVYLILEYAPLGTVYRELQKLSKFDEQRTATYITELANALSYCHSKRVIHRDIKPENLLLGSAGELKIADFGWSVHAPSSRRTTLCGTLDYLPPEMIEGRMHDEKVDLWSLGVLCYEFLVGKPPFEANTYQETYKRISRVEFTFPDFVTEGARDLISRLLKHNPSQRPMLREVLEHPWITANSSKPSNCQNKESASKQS

Pim-1 (h) = Pim-1 (h) (human (h), UniProt P11309 1-313)
PKA (h) = PKA (h) (human (h), UniProt P17612 1-351)
EGFR (h) = EGFR (h) (human (h), UniProt P00533 696-1210, limits assumed)
IRAK4 (h) [2] = target: T3, IRAK4 (h) (human (h), UniProt Q9NWZ3 1-460, limits assumed)
T3 sequence (looked up): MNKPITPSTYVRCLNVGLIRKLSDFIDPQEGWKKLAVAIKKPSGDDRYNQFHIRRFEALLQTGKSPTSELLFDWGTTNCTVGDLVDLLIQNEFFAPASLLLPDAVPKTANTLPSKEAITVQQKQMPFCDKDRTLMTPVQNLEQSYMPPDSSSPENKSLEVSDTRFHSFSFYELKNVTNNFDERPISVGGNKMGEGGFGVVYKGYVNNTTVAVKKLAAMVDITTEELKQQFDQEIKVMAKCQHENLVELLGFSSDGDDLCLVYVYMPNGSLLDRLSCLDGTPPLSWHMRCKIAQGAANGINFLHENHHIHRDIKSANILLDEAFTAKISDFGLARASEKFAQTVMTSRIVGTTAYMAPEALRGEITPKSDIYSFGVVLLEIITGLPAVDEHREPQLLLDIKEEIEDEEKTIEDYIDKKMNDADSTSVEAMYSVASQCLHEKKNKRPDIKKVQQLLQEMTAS

MSK1 (h) = MSK1 (h) (human (h), UniProt O75582 1-802)
MAPKAP-K2 (h) = MAPKAP-K2 (h) (human (h), UniProt P49137 46-400, limits assumed)
MLCK (h) [3] = target: MLCK (h) (human (h))
KDR (tl) = KDR (tl) (UniProt P35968 790-1356, limits assumed)
FGFR1 (h) = FGFR1 (h) (human (h), UniProt P11362 456-765, limits assumed)
IGF-IR (h) = IGF-IR (h) (human (h), UniProt P08069 959-1367, limits assumed)
cKit (h) = cKit (h) (human (h), UniProt P10721 544-976, limits assumed)
Aurora-A (h) [4] = target: T2, Aurora-A (h); remark: listed apart in the source
BTK (h) = BTK (h) (human (h), UniProt Q06187 1-659)
CDKI/cyclinB (h) = CDKI/cyclinB (h) (human (h), UniProt P06493 1-297)
IRAK4 (h) [5] = target: T3, IRAK4 (h); remark: listed apart in the source
JAK3 (h) = JAK3 (h) (human (h), UniProt P52333 781-1124, limits assumed)
MLCK (h) [6] = target: MLCK (h) (human (h)); remark: listed apart in the source
L1MK1 (h) = L1MK1 (h) (human (h), UniProt P53667 285-638, limits assumed)
Chain of L1MK1 (h) (P53667 285-638 limits assumed): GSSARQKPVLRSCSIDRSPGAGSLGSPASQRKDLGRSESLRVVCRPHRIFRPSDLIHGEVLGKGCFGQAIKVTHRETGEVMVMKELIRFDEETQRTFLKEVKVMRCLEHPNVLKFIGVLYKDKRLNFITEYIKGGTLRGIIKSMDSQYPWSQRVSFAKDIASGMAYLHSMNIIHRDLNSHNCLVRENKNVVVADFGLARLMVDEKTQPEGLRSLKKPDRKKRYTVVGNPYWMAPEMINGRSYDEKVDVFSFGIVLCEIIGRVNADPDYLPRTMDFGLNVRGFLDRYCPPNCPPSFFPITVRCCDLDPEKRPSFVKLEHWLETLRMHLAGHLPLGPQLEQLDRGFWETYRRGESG

Chain of BTK (h) (Q06187 whole entry): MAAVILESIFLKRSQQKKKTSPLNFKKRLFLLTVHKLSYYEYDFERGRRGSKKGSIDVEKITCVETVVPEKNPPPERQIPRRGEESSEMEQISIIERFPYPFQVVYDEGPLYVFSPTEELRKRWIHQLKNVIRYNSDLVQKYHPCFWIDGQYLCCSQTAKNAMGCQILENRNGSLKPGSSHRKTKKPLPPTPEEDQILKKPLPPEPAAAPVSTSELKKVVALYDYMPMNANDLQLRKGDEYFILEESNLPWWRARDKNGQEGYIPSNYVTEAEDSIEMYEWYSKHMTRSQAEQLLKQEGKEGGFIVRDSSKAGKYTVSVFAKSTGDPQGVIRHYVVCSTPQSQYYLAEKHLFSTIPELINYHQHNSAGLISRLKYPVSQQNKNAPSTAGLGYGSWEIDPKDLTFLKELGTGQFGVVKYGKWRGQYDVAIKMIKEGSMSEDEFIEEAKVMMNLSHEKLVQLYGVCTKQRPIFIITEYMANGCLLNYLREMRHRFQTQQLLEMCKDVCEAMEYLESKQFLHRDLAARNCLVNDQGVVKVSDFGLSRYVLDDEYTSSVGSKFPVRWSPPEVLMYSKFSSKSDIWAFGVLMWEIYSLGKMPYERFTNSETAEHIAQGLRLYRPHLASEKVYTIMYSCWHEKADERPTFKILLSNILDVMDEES
Chain of CDKI/cyclinB (h) (P06493 whole entry): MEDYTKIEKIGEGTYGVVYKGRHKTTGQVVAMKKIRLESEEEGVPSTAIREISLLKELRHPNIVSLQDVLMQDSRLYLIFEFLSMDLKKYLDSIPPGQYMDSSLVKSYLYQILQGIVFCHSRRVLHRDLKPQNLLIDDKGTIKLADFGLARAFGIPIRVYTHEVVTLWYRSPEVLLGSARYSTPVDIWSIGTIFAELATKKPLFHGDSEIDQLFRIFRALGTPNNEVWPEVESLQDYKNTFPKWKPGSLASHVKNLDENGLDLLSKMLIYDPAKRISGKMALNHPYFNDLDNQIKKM
Chain of Abl (h) (P00519 27-1130 limits assumed): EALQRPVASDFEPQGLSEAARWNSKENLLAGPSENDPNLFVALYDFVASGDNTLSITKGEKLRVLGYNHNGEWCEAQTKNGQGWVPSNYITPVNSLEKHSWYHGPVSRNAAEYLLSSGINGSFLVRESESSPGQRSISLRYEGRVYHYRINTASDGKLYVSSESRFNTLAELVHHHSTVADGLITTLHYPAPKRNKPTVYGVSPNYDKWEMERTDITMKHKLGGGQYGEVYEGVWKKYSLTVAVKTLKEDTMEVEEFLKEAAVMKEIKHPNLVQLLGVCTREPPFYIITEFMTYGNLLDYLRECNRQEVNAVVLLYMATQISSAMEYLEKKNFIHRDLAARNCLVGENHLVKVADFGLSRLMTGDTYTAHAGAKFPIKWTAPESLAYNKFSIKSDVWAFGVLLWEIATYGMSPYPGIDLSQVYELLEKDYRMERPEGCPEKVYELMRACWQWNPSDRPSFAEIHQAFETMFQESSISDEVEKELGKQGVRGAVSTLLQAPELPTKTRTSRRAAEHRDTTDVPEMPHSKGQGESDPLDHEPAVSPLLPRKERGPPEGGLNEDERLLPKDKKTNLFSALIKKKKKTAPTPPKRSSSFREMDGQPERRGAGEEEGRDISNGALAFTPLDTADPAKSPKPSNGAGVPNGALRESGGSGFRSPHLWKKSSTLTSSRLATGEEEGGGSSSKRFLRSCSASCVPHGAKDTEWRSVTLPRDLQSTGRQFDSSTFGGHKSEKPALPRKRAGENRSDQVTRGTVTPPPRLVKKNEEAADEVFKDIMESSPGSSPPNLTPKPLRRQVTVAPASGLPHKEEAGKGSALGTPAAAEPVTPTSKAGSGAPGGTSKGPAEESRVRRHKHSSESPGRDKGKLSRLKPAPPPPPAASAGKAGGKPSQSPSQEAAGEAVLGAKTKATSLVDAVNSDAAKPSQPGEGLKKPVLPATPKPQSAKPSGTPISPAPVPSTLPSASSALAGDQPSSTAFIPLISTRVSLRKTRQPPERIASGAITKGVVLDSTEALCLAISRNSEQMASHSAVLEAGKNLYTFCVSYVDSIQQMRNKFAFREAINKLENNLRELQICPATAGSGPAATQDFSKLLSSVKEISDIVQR
Chain of KDR (tl) (P35968 790-1356 limits assumed): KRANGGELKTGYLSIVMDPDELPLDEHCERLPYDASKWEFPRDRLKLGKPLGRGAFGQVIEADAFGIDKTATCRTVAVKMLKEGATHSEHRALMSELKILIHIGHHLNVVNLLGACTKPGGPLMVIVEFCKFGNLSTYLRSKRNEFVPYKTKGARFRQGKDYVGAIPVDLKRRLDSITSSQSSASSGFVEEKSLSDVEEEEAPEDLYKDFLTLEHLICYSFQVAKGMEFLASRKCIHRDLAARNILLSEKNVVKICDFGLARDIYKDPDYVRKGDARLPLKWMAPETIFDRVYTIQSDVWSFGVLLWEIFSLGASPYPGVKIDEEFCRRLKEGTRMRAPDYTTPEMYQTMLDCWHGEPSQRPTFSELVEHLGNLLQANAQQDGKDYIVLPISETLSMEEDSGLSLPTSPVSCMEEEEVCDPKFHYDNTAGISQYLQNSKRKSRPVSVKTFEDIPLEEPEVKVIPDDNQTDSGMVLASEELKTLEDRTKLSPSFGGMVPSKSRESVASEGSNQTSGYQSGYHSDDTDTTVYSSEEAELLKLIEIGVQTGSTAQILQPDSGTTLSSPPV
Chain of MAPKAP-K2 (h) (P49137 46-400 limits assumed): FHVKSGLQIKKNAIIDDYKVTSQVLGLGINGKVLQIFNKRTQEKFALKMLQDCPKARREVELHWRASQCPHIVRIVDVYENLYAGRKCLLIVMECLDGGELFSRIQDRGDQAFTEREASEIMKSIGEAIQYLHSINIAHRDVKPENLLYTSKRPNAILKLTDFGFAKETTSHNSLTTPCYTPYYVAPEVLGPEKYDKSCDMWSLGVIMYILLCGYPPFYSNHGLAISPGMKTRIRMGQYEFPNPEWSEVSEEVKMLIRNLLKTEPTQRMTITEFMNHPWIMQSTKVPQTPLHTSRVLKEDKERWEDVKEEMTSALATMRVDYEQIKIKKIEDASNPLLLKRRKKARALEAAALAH
Chain of FGFR1 (h) (P11362 456-765 limits assumed): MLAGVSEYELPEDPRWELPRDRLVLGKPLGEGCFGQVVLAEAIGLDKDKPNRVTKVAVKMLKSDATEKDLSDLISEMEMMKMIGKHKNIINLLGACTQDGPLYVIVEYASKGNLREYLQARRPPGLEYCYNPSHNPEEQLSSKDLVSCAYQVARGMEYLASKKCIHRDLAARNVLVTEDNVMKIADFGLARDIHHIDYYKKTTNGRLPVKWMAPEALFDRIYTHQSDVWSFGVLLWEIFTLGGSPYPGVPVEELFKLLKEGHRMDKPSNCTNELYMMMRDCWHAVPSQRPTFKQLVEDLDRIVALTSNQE
Chain of Tie2 (h) (Q02763 771-1124 limits assumed): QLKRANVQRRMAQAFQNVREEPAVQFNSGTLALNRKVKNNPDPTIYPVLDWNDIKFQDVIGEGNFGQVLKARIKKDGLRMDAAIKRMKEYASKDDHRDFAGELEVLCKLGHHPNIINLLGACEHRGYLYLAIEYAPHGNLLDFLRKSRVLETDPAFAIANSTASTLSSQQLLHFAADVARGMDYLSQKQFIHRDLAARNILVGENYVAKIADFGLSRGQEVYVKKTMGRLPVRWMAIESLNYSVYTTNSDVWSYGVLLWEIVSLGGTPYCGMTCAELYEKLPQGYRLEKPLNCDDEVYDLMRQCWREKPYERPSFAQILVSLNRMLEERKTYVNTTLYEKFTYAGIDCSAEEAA
Chain of JAK3 (h) (P52333 781-1124 limits assumed): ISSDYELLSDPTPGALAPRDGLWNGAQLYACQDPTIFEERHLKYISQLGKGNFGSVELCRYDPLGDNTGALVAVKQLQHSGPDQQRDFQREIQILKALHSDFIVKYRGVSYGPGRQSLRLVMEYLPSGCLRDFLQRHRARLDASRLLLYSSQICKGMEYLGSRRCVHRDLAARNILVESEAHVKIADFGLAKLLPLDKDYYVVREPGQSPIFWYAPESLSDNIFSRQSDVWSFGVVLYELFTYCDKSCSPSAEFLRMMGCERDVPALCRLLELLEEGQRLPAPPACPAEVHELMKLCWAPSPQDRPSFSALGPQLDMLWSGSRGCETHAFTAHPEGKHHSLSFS
Chain of Pim-1 (h) (P11309 whole entry): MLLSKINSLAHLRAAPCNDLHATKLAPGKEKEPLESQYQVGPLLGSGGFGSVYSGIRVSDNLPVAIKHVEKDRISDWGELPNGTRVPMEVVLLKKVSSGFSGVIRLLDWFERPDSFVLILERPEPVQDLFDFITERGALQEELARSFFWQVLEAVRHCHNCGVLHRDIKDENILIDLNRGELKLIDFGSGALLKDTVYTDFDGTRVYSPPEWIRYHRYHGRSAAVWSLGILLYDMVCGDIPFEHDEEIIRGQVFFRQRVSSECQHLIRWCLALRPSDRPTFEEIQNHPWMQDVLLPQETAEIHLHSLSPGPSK
Chain of ASK1 (h) (Q99683 649-946 limits assumed): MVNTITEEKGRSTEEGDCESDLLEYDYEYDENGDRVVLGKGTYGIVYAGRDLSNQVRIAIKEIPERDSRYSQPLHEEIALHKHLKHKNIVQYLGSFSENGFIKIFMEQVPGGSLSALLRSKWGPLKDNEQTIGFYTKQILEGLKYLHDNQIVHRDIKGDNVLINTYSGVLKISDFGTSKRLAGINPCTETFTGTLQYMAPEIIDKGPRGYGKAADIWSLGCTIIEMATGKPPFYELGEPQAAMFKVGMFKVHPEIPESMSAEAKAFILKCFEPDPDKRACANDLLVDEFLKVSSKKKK

Binder: FAKLAARLYRKALARQLGVAA
- Profile-1 @ = 100 µm (kinase profiler assay) (Syk (h)): 38
- Profile-1 @ = 100 µm (kinase profiler assay) (Tie2 (h)): 0
- Profile-1 @ = 100 µm (kinase profiler assay) (ASK1 (h)): 53
- Profile-1 @ = 100 µm (kinase profiler assay) (Abl (h)): 41
- Profile-1 @ = 100 µm (kinase profiler assay) (PhKγ2 (h)): 20
- Profile-1 @ = 100 µm (kinase profiler assay) (MAPKAP-K3 (h)): 10
- Profile-1 @ = 100 µm (kinase profiler assay) (Aurora-A (h) [1]): 65
- Profile-1 @ = 100 µm (kinase profiler assay) (Pim-1 (h)): 1
- Profile-1 @ = 100 µm (kinase profiler assay) (PKA (h)): 76
- Profile-1 @ = 100 µm (kinase profiler assay) (EGFR (h)): 18
- Profile-1 @ = 100 µm (kinase profiler assay) (IRAK4 (h) [2]): 13
- Profile-1 @ = 100 µm (kinase profiler assay) (MSK1 (h)): 11
- Profile-1 @ = 100 µm (kinase profiler assay) (MAPKAP-K2 (h)): 5
- Profile-1 @ = 100 µm (kinase profiler assay) (MLCK (h) [3]): 1
- Profile-1 @ = 100 µm (kinase profiler assay) (KDR (tl)): 78

Binder: WLRRIKAWLRRIKALNRQLGVAA
- Profile-1 @ = 30 µm (kinase profiler assay) (FGFR1 (h)): 27
- Profile-1 @ = 30 µm (kinase profiler assay) (IGF-IR (h)): 227
- Profile-1 @ = 30 µm (kinase profiler assay) (cKit (h)): 23
- Profile-1 @ = 30 µm (kinase profiler assay) (Aurora-A (h) [4]): 46
- Profile-1 @ = 30 µm (kinase profiler assay) (BTK (h)): 5
- Profile-1 @ = 30 µm (kinase profiler assay) (CDKI/cyclinB (h)): 17
- Profile-1 @ = 30 µm (kinase profiler assay) (IRAK4 (h) [5]): 12
- Profile-1 @ = 30 µm (kinase profiler assay) (JAK3 (h)): 85
- Profile-1 @ = 30 µm (kinase profiler assay) (MLCK (h) [6]): 4
- Profile-1 @ = 30 µm (kinase profiler assay) (L1MK1 (h)): 89
